Source: patent US20140072613A1 (published 2014)

T1: IRAK4(h) (human, UniProt Q9NWZ3 1-460, limits assumed)
T1 sequence (looked up): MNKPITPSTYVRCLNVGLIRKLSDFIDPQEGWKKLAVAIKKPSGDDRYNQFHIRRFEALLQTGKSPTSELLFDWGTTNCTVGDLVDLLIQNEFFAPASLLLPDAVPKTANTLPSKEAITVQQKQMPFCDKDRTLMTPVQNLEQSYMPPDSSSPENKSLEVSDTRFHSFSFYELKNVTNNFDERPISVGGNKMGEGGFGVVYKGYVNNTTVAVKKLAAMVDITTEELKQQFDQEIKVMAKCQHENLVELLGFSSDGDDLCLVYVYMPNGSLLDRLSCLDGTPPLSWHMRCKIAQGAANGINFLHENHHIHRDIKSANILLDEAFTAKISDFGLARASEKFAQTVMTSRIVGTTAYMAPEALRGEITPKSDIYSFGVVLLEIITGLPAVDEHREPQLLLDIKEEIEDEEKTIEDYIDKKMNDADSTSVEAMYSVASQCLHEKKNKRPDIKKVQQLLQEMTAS

T2: NEK2(h) (human, UniProt P51955 1-445)
T2 sequence (looked up): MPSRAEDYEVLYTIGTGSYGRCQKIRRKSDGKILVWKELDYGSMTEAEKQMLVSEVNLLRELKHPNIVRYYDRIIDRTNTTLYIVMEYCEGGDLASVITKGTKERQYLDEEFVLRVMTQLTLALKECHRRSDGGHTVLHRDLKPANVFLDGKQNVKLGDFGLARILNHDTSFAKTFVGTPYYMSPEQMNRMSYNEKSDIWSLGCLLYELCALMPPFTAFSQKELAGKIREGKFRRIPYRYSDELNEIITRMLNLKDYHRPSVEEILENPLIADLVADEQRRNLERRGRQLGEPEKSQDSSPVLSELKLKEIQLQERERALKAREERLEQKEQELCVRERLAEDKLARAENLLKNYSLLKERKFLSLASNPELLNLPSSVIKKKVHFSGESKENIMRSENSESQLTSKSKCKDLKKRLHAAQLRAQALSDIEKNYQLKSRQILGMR

T3: EphA5(h) (human, UniProt P54756 595-1037, limits assumed)
T3 sequence (looked up): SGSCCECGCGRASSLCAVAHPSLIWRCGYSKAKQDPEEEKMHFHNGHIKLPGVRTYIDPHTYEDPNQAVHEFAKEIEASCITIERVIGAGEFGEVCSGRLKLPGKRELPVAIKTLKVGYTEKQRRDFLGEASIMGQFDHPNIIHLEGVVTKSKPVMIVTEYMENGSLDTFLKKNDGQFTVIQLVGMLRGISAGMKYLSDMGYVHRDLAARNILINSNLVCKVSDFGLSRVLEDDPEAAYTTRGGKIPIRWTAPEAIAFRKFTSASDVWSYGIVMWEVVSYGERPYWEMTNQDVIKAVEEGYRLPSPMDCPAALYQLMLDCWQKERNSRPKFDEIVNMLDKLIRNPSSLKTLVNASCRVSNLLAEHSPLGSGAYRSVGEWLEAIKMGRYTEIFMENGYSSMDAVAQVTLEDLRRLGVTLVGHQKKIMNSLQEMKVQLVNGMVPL

T4: EphA4(h) (human, UniProt P54764 570-986, limits assumed)
T4 sequence (looked up): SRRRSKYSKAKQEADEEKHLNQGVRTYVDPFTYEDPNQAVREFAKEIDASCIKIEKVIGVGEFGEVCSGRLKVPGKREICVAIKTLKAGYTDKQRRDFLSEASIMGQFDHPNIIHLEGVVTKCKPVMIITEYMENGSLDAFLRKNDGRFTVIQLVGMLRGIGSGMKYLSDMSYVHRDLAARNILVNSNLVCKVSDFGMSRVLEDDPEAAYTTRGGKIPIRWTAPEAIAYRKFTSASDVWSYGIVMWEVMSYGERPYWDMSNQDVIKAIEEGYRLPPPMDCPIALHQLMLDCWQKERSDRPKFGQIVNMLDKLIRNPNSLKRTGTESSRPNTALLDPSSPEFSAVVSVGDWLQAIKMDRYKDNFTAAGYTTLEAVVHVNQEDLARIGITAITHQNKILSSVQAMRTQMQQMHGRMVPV

T5: ARK5(h) (human, UniProt O60285 1-661, limits assumed)
T5 sequence (looked up): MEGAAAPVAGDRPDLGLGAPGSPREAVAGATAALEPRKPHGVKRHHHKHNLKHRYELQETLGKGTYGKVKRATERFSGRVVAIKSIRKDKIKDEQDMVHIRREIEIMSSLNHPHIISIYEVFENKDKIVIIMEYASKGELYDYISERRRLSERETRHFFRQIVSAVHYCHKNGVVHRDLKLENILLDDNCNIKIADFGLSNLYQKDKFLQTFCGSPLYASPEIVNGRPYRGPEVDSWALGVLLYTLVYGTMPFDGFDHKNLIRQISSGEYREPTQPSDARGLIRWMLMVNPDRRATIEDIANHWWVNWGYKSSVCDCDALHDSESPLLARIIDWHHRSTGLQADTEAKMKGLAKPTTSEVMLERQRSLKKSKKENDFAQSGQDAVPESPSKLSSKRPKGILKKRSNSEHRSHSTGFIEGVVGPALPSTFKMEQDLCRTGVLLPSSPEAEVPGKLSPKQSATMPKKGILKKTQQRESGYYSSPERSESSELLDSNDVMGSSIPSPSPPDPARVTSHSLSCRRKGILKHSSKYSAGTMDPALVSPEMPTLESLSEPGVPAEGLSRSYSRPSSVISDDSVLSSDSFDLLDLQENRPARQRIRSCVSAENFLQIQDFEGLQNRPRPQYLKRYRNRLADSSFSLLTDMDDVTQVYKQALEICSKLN


Experiments:
Experiment in all cases: cell-based or functional assay
JNK2α2(h) = JNK2α2(h) (human, UniProt P45984 1-424)
IRAK4(h) = biological target: T1, IRAK4(h)
NEK2(h) = biological target: T2, NEK2(h)
EphA5(h) = biological target: T3, EphA5(h)
EphA4(h) = biological target: T4, EphA4(h)
CLK2(h) = CLK2(h) (human, UniProt P49760 1-499, limits assumed)
ARK5(h) = biological target: T5, ARK5(h)
CDK1/cyclinB(h) = CDK1/cyclinB(h) (human, UniProt P06493 1-297; P14635 1-433)
GRK6(h) = GRK6(h) (human, UniProt P43250 1-576)
CDK7/cyclinH/MAT1(h) = CDK7/cyclinH/MAT1(h) (human, UniProt P50613 1-346; P51946 1-323; P51948 1-309)
Chain of CDK7/cyclinH/MAT1(h) (P50613 whole entry, chain 1 of 3): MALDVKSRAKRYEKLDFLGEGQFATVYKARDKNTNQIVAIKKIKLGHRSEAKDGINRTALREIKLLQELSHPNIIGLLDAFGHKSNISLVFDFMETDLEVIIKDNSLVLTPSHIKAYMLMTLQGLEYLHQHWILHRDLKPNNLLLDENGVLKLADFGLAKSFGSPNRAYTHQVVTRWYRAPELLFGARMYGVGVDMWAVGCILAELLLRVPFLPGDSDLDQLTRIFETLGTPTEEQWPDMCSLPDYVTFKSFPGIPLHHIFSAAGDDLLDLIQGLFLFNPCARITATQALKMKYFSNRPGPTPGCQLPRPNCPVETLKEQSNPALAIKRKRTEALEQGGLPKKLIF
Chain of CDK7/cyclinH/MAT1(h) (P51946 whole entry, chain 2 of 3): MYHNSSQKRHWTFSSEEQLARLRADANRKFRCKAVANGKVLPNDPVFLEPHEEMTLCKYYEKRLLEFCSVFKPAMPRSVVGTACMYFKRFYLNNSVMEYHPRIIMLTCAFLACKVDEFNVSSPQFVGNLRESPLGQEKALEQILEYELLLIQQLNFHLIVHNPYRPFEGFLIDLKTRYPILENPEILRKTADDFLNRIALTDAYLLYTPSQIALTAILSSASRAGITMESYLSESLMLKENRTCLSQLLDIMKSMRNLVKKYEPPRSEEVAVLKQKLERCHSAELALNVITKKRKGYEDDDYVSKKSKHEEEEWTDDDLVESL
Chain of CDK7/cyclinH/MAT1(h) (P51948 whole entry, chain 3 of 3): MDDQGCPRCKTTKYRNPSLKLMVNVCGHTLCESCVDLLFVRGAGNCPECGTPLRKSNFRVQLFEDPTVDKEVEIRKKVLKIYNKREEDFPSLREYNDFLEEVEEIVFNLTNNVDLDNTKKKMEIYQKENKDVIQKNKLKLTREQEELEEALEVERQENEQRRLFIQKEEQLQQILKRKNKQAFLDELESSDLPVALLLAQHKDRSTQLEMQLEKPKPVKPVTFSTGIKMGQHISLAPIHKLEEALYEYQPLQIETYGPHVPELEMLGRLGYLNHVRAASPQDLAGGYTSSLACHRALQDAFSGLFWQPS

Chain of CLK2(h) (P49760 whole entry): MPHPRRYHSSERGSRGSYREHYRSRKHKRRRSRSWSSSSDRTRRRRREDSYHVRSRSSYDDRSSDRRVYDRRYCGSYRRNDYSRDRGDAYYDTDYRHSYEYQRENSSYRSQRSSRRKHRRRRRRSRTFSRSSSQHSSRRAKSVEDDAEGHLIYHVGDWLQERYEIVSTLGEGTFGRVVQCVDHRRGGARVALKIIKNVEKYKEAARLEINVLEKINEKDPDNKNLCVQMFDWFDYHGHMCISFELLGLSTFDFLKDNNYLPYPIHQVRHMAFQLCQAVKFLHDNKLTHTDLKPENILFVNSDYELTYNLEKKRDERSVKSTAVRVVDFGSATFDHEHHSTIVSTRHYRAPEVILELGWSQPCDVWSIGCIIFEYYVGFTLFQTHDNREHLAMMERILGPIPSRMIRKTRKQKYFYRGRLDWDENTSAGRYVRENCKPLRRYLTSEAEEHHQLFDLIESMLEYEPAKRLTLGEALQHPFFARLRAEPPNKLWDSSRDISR
Chain of CDK1/cyclinB(h) (P06493 whole entry, chain 1 of 2): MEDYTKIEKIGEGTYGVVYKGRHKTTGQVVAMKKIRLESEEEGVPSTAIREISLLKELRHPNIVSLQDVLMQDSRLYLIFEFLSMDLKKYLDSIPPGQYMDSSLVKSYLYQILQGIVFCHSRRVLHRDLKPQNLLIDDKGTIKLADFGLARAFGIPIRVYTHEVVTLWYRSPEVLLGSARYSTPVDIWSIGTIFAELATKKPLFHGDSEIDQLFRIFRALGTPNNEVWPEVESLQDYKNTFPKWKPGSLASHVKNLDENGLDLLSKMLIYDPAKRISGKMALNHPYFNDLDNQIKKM
Chain of CDK1/cyclinB(h) (P14635 whole entry, chain 2 of 2): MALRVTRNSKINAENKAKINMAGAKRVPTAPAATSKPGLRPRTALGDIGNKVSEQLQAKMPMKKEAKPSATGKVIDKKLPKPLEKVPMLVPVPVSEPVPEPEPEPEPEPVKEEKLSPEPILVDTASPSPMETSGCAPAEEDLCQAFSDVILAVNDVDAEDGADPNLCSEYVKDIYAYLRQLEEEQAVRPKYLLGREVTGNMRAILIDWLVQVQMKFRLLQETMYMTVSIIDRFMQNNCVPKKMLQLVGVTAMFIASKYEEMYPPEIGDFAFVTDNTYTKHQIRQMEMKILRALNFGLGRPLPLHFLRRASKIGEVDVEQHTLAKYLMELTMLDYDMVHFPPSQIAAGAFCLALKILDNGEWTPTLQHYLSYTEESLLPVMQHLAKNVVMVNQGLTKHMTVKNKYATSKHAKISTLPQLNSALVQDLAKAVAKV
Chain of GRK6(h) (P43250 whole entry): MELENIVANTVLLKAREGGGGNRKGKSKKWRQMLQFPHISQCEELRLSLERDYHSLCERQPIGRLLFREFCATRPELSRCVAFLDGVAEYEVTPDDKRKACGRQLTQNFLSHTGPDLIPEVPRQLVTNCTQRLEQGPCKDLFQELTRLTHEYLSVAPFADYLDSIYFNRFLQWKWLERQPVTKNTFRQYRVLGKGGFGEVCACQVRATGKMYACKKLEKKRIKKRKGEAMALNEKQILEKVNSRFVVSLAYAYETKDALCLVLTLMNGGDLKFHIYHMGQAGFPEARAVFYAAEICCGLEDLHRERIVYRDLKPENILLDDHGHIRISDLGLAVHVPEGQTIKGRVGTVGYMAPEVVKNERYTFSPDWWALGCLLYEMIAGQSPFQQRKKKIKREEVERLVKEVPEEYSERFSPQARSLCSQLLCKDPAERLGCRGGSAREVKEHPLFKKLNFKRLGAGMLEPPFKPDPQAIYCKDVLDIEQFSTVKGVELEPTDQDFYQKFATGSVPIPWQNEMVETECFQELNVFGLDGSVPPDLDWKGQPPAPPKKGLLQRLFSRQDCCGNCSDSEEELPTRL

Row | Binder | % activity, 100 µM (JNK2α2(h)) | % activity, 100 µM (IRAK4(h)) | % activity, 100 µM (NEK2(h)) | % activity, 100 µM (EphA5(h)) | % activity, 100 µM (EphA4(h)) | % activity, 100 µM (CLK2(h)) | % activity, 100 µM (ARK5(h)) | % activity, 100 µM (CDK1/cyclinB(h)) | % activity, 100 µM (GRK6(h)) | % activity, 100 µM (CDK7/cyclinH/MAT1(h))
1 | KAFAKLAARLYRKALARQLGVAA [MMI-0400] | 96% | 59% | 61% | 24% | 65% | 116% | 69% | 74% | 141% | 47%
2 | FAKLAARLYRKALARQLGVAA [MMI-0300] | 98% | 59% | 78% | 18% | 88% | 103% | 78% | 73% | 147% | 65%
